Legend:
[1] = molecular target: T1, rTRPV1 (Rattus norvegicus, UniProt O35433); assay: Whole-cell patch clamp recordings of TRPV1 activation by toxins in transiently transfected HEK293 cells; type: cell-based
T1 construct: preserved in the full-length construct used for our functional studies; expressed in transfected cells; host or cells: HEK293
Excerpt: Figure 3. Validation of the proposed structural model of the TRPV1-DkTx complex. Close-up of K1 (A) and K2 (B) in the top-ranking ROSETTA model of DkTx bound to TRPV1. Side chains of TRPV1 residues where mutation disrupts DkTx-induced channel activation (I599, F649, A657 and F659) ([Bohlen et al., 2010]) are highlighted in purple. (C) Representative time courses of TRPV1 activation at +120 mV by either DkTx (left panel), K1K1 (middle panel) or K2K2 (right panel) measured from a train of voltage-ramps in the whole-cell configuration with the TRPV1 expressed in HEK cells. […] Fractional dissociation 1 min after toxin removal was quantified across cells as the current amplitude 1 min after toxin removal divided by the steady-state current amplitude in the presence of the toxin. […] Activation of the full-length TRPV1 channel by the toxin at different concentrations was measured in oocytes at a holding voltage of −60 mV. […]
Figure 7. […] Currents were measured every 3 s by applying voltage-ramps of 1 s duration from −120 to +140 mV starting at a holding potential of −90 mV. Currents were recorded under constant perfusion with control solution or with the test solutions containing either NMDG^+ instead of Na^+ as permeant ion (gray), or the K2 toxins together with 130 mM NaCl (black and blue), as indicated by the continuous horizontal lines. […]

[2] = Membrane partitioning of toxins into lipid vesicles measured using Trp fluorescence; type: physicochemical
Excerpt: Motivated by the amphipathic character evident in the structure of DkTx, together with the placement of the toxin at the protein-lipid interface when bound to TRPV1, we investigated the interaction of DkTx and each of its two lobes with lipid membranes. For these experiments, we took advantage of the presence of a single conserved and solvent accessible Trp residue in loop 2 of both K1 and K2 (Figure 1C,D; W11 and W53), and used Trp fluorescence to monitor the partitioning of the toxin from the aqueous solution into the membrane environment ([Gupta et al., 2015]; [Ladokhin et al., 2000]; [Milescu et al., 2007]). When aqueous solutions of DkTx were excited at a wavelength of 280 nm, emission spectra with maxima at 353 nm were obtained (Figure 5A, left), as expected for Trp residues residing in such an environment. […] To quantify the extent of partitioning as a function of lipid concentration, we measured the relative fluorescence intensity in a blue-shifted region of the spectra (e.g. 320 nm) as a function of lipid concentration, and fit a partition function to the data to obtain a mole-fraction partition coefficient (Kx) of (2.3 ± 0.7) × 10^6, indicating an energetically favorable interaction of DkTx with lipid membranes (Figure 5A, right). This strong interaction of DkTx with membranes would facilitate binding of the toxin to the channel by increasing the local concentration of the toxin near the channel and by a reduction in the dimensionality of diffusion within the membrane ([Axelrod and Wang, 1994]).
Figure 5. Interaction of DkTx and toxin constructs with lipid membranes measured using Trp fluorescence. […] (A–E, right panel) Relative fluorescence intensity at 320 nm (F/F0) as a function of available lipid concentrations (60% of total lipid concentration). […] Interaction of K1-K2 chimeras with lipid membranes measured using Trp fluorescence. […] (A–D, right panel) Relative fluorescence intensity at 320 nm (F/F0) as a function of available lipid concentrations (60% of total lipid concentration). […]

T1 sequence (O35433 whole entry): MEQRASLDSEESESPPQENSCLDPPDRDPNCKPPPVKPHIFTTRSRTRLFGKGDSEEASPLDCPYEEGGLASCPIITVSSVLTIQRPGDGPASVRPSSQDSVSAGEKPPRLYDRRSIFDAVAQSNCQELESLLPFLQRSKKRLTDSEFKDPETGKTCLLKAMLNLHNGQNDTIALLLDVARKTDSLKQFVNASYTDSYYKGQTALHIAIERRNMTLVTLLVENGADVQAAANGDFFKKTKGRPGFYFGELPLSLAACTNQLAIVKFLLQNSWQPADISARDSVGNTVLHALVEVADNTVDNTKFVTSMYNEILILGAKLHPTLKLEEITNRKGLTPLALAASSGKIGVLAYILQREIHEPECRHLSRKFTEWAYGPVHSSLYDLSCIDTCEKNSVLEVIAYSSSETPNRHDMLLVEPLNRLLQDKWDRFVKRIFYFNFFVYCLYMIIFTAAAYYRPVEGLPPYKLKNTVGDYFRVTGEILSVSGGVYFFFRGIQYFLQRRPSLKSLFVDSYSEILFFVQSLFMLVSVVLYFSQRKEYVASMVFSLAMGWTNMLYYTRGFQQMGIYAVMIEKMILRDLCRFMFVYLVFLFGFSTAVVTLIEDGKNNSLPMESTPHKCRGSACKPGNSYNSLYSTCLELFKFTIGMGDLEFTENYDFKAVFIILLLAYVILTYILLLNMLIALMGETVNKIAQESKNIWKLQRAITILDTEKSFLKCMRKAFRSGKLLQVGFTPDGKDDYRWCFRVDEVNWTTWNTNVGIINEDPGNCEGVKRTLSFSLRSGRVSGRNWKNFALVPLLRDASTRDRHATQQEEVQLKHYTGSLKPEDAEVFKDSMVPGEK

B1: double-knot toxin (protein)
chain: DCAKEGEVCSWGKKCCDLDNFYCPMEFIPHCKKYKPYVPVTTNCAKEGEVCGWGSKCCHGLDCPLAFIPYCEKYR
notes: produced recombinantly
**Q.** With B1 as the molecule, how does the “dissociation from TRPV1 after toxin removal (in words)” value ([1]; HEK cells) read?
**A.** Its value is “slow dissociation”.

**Q.** And the “Fractional dissociation 1 min after toxin removal (current amplitude 1 min after toxin removal divided by steady-state current amplitude in presence of toxin)” value ([1]; TRPV1 in HEK cells, +120 mV from voltage ramps, 1 µM toxin, mean ± sem, n = 8 (DkTx), 5 (K1K1), 6 (K2K2), SEM)?
**A.** Its value is 0.8 ± 0.05.

**Q.** What about the “F/F0^max (relative fluorescence intensity at 320 nm when partitioning is saturated)” value ([2]; Trp fluorescence, LUVs 1:1 POPC:POPG, 10 mM HEPES, 1 mM EDTA, pH 7.0, fit of partition function, ± SEM, n = 3 or 4, SEM) of the same molecule?
**A.** The value was 2.65 ± 0.08.

**Q.** What about the “mole-fraction partition coefficient (Kx)” value ([2]; Trp fluorescence, excitation 280 nm, F/F0 at 320 nm, LUVs 1:1 POPC:POPG extruded through 100 nm, toxin 2 or 5 µM in 10 mM HEPES, 1 mM EDTA, pH 7.0, available lipid 60% of total, fit of partition function, ± SEM, n = 3 or 4, SEM) of the same molecule?
**A.** The value was “(2.3 ± 0.7) × 10^6”.

**Q.** What about the “measured free energy of membrane partitioning (ΔG° = −RT lnKx)” value ([2]; from measured Kx, LUVs 1:1 POPC:POPG) of the same molecule?
**A.** The value was -8.5 kcal/mol.
